Laboratory results: patent US6780611B1, “Polynucleotide encoding neuromedin U receptor” (Pfizer Inc., priority 1999, dated 2004)
No end group written: not given here.

Target: T1, PFI-002 receptor (Homo sapiens, UniProt Q9GZQ4, S2A)
T1 construct: expressed in transfected cells; host or cells: HEK 293 (human embryonic kidney), transient transfection
Experiment: Functional screen of peptides by FLIPR (Fluo-3 fluorescence) in HEK 293 cells transiently transfected with PFI-002
Type: cell-based
Details: HEK 293 cells transiently transfected with PFI-002, Fluo-3 loaded; neuromedins 10 μM final, in triplicate; other peptides 5 μM final
Method: Transient Expression in Native HEK 293 Cells
Transfection: 7.5 μg of PFI-002 DNA was transiently transfected into native human embryonic kidney 293 (HEK 293) cells (75 cm^2 flask, 80% confluent) using the Lipofectamine Plus protocol (Life Technologies, Inc.) and following the manufacturer's instructions. 24 hrs after transfection, the cells were detached with trypsin and seeded into black walled 96 well plates at a density of 5×10^4 cells/well. The next day the cells were loaded with Fluo-3 in the presence of 3 mM probenicid (Molecular Devices; inhibits activity of the anion transport protein, thus improving dye loading) for 1.5 hours (loading dye/96 well plate: 50 μg Fluo-3 in 20 μl DMSO+20 μl 20% pluronic acid in DMSO+11 ml growth media+3 mM probenicid—added 100 μl loading dye/well). After washing (wash buffer PBS/3 mM probenicid/pH 7.4), the cells were exposed to 60 peptides (final concentration 5 μM each) arrayed in a 96 well plate. In addition, neuromedins B, C, N, U8 and U25 (final concentration 10 μM each) were screened in triplicate. Fluorescence was measured by a Fluorometric Imaging Plate Reader (FLIPR, Molecular Devices) according to the manufacturer's protocol.

T1 sequence (Q9GZQ4 whole entry S2A): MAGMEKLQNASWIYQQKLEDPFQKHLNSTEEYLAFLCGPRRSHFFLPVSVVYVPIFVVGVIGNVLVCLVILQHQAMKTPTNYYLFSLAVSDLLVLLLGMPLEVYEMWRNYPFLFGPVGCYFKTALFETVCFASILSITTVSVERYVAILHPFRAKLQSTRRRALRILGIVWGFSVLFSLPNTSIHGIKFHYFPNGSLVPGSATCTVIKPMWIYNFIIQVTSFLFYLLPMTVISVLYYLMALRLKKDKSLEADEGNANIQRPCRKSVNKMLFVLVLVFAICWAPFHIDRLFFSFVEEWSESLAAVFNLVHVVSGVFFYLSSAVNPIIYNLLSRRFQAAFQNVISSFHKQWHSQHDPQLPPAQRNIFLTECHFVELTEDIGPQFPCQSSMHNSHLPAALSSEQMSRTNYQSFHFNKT

neuromedin U: Peptide ligand of the PFI-002 receptor; screened as Neuromedin U8 and Neuromedin U25 (wells F10-G3) (FRVDEEFQSPFASQSRGYFLFRPRN; ends and bridges not checked; UniProt P48645 142-166, looked up)
functional response of PFI-002 receptor (fluorescence measured by FLIPR, FIG. 2): specific functional response
